For 15 molecules, IC50 results are on record in patent US20130052176, “APTAMER FOR NGF AND USE THEREOF” (SHIONOGI & CO., LTD, published 2013).

Series [1] concerns the target T1, NGF (nerve growth factor) (human, UniProt P01138 P01138:122-241). As to the kind of experiment: cell_activity; neurite outgrowth, NGF 0.38 nM; TF-1 IC50 0.165 nM. To be noted: tags: human NGF; chain copies: 2. As to the method: (§1) The neurite outgrowth inhibitory activity of the aptamer obtained in Example 1 was evaluated by using Neuroscreen-1 cell, which is a subclone of PC-12 cells.
(§2) The cells (2500 cells per well) were cultured for one day in an RPMI-1640 medium containing 2.5% horse serum and 1.25% fetal bovine serum in a 96 well flat-bottom plate coated with collagen type IV. […] Two days later, the cytoplasm and nuclei were stained using Cellomics Neurite Outgrowth Kit (manufactured by Thermo Scientific), and neurite length per cell was measured by Cellomics ArrayScan VTI (manufactured by Thermo Scientific). With the neurite length per cell obtained by the addition of NGF alone as inhibitory activity 0%, and that of the cell obtained by NGF free culture for 2 days as inhibitory activity 100%, the inhibitory activity of the aptamer was calculated from the neurite length per cell obtained by culturing with the addition of NGF and the aptamer in mixture. When the inhibitory activity was 0% or below, ‘0%’ is indicated.

Series [2] concerns the target T1, NGF (nerve growth factor). Nature of the series: cell_activity; neurite outgrowth, NGF 0.38 nM; TF-1 IC50 0.122 nM. To be noted: tags: human NGF; chain copies: 2. The procedure: as §1, §2
The target of series [3] is T1, NGF (nerve growth factor). Nature of the series: cell_activity; neurite outgrowth, NGF 0.38 nM; TF-1 IC50 0.130 nM. To be noted: tags: human NGF; chain copies: 2. The procedure: as §1, §2
For series [4], the target named is T1, NGF (nerve growth factor). As to the kind of experiment: cell_activity; neurite outgrowth, NGF 0.38 nM; TF-1 IC50 0.239 nM. To be noted: tags: human NGF; chain copies: 2. The procedure: as §1, §2
Series [5] deals with T1, NGF (nerve growth factor). Nature of the series: cell_activity; neurite outgrowth, NGF 0.38 nM; TF-1 IC50 0.100 nM. To be noted: tags: human NGF; chain copies: 2. The procedure: as §1, §2
The target in series [6] is T1, NGF (nerve growth factor). As to the kind of experiment: cell_activity; neurite outgrowth, NGF 0.38 nM; TF-1 IC50 0.164 nM. To be noted: tags: human NGF; chain copies: 2. The procedure:
as §1, §2

Series [7] concerns the target T1, NGF (nerve growth factor). As to the kind of experiment: cell_activity; neurite outgrowth, NGF 0.38 nM; TF-1 IC50 0.193 nM. To be noted: tags: human NGF; chain copies: 2. The procedure:
as §1, §2

Series [8] concerns the target T1, NGF (nerve growth factor). As to the kind of experiment: cell_activity; neurite outgrowth, NGF 0.38 nM; TF-1 IC50 0.159 nM. To be noted: tags: human NGF; chain copies: 2. The procedure: as §1, §2
Series [9] has as its target T1, NGF (nerve growth factor). As to the kind of experiment: cell_activity; neurite outgrowth, NGF 0.38 nM; TF-1 IC50 0.104 nM. To be noted: tags: human NGF; chain copies: 2. The procedure: as §1, §2
Series [10] has as its target T1, NGF (nerve growth factor). As to the kind of experiment: cell_activity; neurite outgrowth, NGF 0.38 nM; TF-1 IC50 0.107 nM. To be noted: tags: human NGF; chain copies: 2. As to the method:
as §1, §2

In series [11] the target is T1, NGF (nerve growth factor). As to the kind of experiment: cell_activity; neurite outgrowth, NGF 0.38 nM; TF-1 IC50 0.074 nM. To be noted: tags: human NGF; chain copies: 2. As to the method: as §1, §2
Series [12] addresses T1, NGF (nerve growth factor). Nature of the series: cell_activity; neurite outgrowth, NGF 0.38 nM; TF-1 IC50 >0.3 nM. To be noted: tags: human NGF; chain copies: 2. As to the method:
as §1, §2

Series [13] concerns the target T1, NGF (nerve growth factor). Nature of the series: cell_activity; neurite outgrowth, NGF 1.1 nM; SPR binding; TF-1 IC50 1.0 nM. To be noted: tags: amine-coupled to CM5 chip in SPR; soluble in cell assays; chain copies: 2. (SPR reads the build-up and loss of mass on a sensor chip optically.)
The target in series [14] is T1, NGF (nerve growth factor). As to the kind of experiment: cell_activity; neurite outgrowth, NGF 1.1 nM; SPR binding; TF-1 IC50 5.7 nM. To be noted: tags: amine-coupled to CM5 chip in SPR; soluble in cell assays; chain copies: 2. As to the method:
as §1, §2

The target of series [15] is T1, NGF (nerve growth factor). Nature of the series: cell_activity; neurite outgrowth, NGF 1.1 nM; SPR binding; blocks NGF-TrkA; TF-1 IC50 >30 nM. To be noted: tags: amine-coupled to CM5 chip in SPR; soluble in cell assays; chain copies: 2. As to the method: as §1, §2

T1 sequence (P01138 122-241, one chain of several): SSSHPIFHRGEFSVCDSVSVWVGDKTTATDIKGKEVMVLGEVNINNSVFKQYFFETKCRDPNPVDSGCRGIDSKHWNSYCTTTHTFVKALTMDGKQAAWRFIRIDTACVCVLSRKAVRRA

B1: aptamer ID 26(30) (mixed)
RNA: GGGAGACUCGCCAGAGUUGAAAGAAACCCAAAUAAGUGUGCGCAC
modifications: as 26(19) (5' and 3' idT; 2'-F pyrimidines; 2'-OMe purines except ribo g3,g19,a20,a26) but c45 is dC
For the molecule B1, in series [1], the midpoint of inhibition, the IC50, lay at 0.289 nM.

B2: aptamer ID 26(56) (mixed)
RNA: B1 RNA
modifications: 5' and 3' idT; 2'-OMe purines except ribo g3,g19,a20,a26; 2'-F c27,c28,c41,c43; dC29,dU39; other pyrimidines 2'-OMe
On to B2, for which, in series [2], the IC50 (in general, the concentration that inhibits the measured activity by half) is 0.154 nM.

B3: aptamer ID 26(57) (mixed)
RNA: B1 RNA
modifications: 5' and 3' idT; 2'-OMe purines except ribo g3,g19,a20,a26; 2'-F c27,c28,u39,c43; dC29,dC41; other pyrimidines 2'-OMe
As to B3, the IC50 in [3] stood at 0.213 nM. This counts as sub-nanomolar.

B4: aptamer ID 26(34) (ssRNA)
RNA: B1 RNA
modifications: as 26(19) (5' and 3' idT; 2'-F pyrimidines; 2'-OMe purines except ribo g3,g19,a20,a26) but u33 is 2'-OMe
B4: in [4], the IC50 is 0.247 nM.

B5: aptamer ID 26(46) (ssRNA)
RNA: B1 RNA
modifications: 5' and 3' idT; 2'-OMe purines except ribo g3,g19,a20,a26; 2'-OMe c7,u8,c11,c12,u17,u33,c45; other pyrimidines 2'-F
As for B5, in [5], the IC50 turned out to be 0.097 nM.

B6: aptamer ID 26(35) (ssRNA)
RNA: B1 RNA
modifications: as 26(19) (5' and 3' idT; 2'-F pyrimidines; 2'-OMe purines except ribo g3,g19,a20,a26) but c45 is 2'-OMe
Molecule B6 came in with an IC50 in [6] of 0.166 nM.

B7: aptamer ID 26(32) (ssRNA)
RNA: B1 RNA
modifications: as 26(19) (5' and 3' idT; 2'-F pyrimidines; 2'-OMe purines except ribo g3,g19,a20,a26) but c11 is 2'-OMe
Consider B7, for which, in series [7], half-maximal inhibition (IC50) required 0.22 nM.

B8: aptamer ID 26(23) (mixed)
RNA: B1 RNA
modifications: as 26(19) (5' and 3' idT; 2'-F pyrimidines; 2'-OMe purines except ribo g3,g19,a20,a26) but c9 is dC
In series [8], B8 returned an IC50 of 0.229 nM. This lies in the sub-nanomolar range.

B9: aptamer ID 26(19) (ssRNA)
RNA: B1 RNA
modifications: 5' and 3' idT; 2'-F all pyrimidines; 2'-OMe all purines except ribo g3,g19,a20,a26
As for B9, the IC50 in [9] was below 0.01 nM.

B10: aptamer ID 26(58) (mixed)
RNA: B1 RNA
modifications: 5' and 3' idT; 2'-OMe purines except ribo g3,g19,a20,a26; 2'-F c27,c28,u39,c41; dC29,dC43; other pyrimidines 2'-OMe
On to B10, for which, in series [10], the concentration for half-maximal inhibition (IC50) stood at 0.143 nM. This counts as sub-nanomolar.

B11: aptamer ID 26(47) (ssRNA)
RNA: B1 RNA
modifications: 5' and 3' idT; 2'-OMe purines except ribo g3,g19,a20,a26; 2'-OMe c7,c11,c12,u17,u33,u37,c45; other pyrimidines 2'-F
B11 gave an IC50 in [11] of 0.065 nM.

B12: aptamer ID 26(40) (ssRNA)
RNA: B1 RNA
modifications: as 26(19) (5' and 3' idT; 2'-F pyrimidines; 2'-OMe purines except ribo g3,g19,a20,a26) but c7 is 2'-OMe; PS between a26 and c27
In [12], B12 displayed a concentration for half-maximal inhibition (IC50) of 0.247 nM.

B13: aptamer ID 21 (ssRNA)
RNA: GGGAGAACUUCGCCAGAAGUUUGAAAGAAACCCAAAUAAAGAGUGCGCUCA
modifications: 2'-F at all pyrimidines
Turning to B13, the IC50 in [13] came to 1.1 nM.

In turn, GGGAGACUCGCCAGAGUUGAAAGAAACCCAAAUAAAGAUGUGCGCAUCA (ssRNA, 2'-F at all pyrimidines) [aptamer ID 22] came in with an IC50 in series [14] of 1.3 nM.

B14: aptamer ID 32 (ssRNA)
RNA: GGGAGAACUUCGACCAGAAGUCGAUAACGAACAAAACUCCCAAAGGAAUAUAUGUGCGCAUACA
modifications: 2'-F at all pyrimidines
For the molecule B14, the IC50 in series [15] amounted to 1 nM.
